For one substance, stoichiometry N results are on record in publication PMC6994640.

For the assay, the target named is CgIgR (native, oyster hemocytes) (Crassostrea gigas (endogenous in oyster hemocytes)). The assay is described as follows: cross-linking.

The stoichiometry N is a count of units in the complex or per binding partner. For the substance “CgIgR (native, oyster hemocytes) (receptor)”, the stoichiometry N stood at 2.
